Reference: US20150197568A1 (AstraZeneca / MedImmune, published 2015)

Assays:
[1] = biological target: Mature human IL-6 (human, UniProt P05231 30-212); assay: cell-based or functional assay
[2] = biological target: T1, HIS FLAG tagged human IL-6 (human, UniProt P05231 30-212); assay: HTRF receptor-ligand competition; HIS FLAG human IL-6 vs biotinylated sIL-6R
T1 construct: In house; also called HIS FLAG IL-6; HIS/FLAG IL-6
Procedure: Unique scFvs were expressed again in bacteria and purified by affinity chromatography (as described by Bannister et al. Purified IgG samples of these clones were also prepared as described in section 1.3. The potencies of these samples were determined by competing a dilution series of the purified preparation against biotinylated sIL-6R for binding to HIS FLAG tagged human IL-6 (in house E. coli derived).
Purified scFv and IgG from positive clones identified from screening were tested in a HTRF® assay for inhibition of binding of HIS FLAG tagged human IL-6 to biotinylated IL-6R. 8 nM biotinylated human IL-6R was pre-incubated for 30 minutes at room temperature in the dark, with 8 nM streptavidin XL^{ent!}™. All dilutions were done in phosphate buffered saline (PBS) containing 0.4 M potassium fluoride and 0.1% BSA (assay buffer).

[3] = biological target: T2, Murine IL-6 (murine, UniProt P08505 25-211); assay: DELFIA epitope competition; protein titrated against biotinylated HIS FLAG IL-6 on immobilised CAN022D10 IgG
T2 construct: also called mouse IL-6
T2 sequence (looked up): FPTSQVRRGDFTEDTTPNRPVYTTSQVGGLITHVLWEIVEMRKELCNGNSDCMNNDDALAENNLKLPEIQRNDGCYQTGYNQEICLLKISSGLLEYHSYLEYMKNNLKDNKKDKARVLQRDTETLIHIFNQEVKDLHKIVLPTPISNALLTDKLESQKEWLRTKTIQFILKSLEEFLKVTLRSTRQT
Procedure: (§1) Titrations of IL-6 species including cynomolgus (in house E. Coli derived), human HIS FLAG IL-6 (in house HEK-EBNA derived), rat and murine IL-6 (both R & D Systems) were tested in each assay to establish the species cross-reactivity of the antibodies. Details of the protocol are provided in the Materials and Methods section.
(§2) Purified IgG were adsorbed onto 96-well Maxisorp microtitre plates (Nunc) in PBS at a concentration which gave a significant signal when biotinylated human IL-6 was added at approximately its estimated Kd for that particular IgG. Excess IgG was washed away with PBS-Tween (0.1% v/v) and the wells were blocked with PBS-Marvel (3% w/v) for 1 h. […] These mixtures were then transferred onto the blocked IgG and allowed to equilibrate for 1.5 h. Unbound antigen was removed by washing with PBS-Tween (0.1% v/v), while the remaining biotinylated human IL-6 was detected by streptavidin-Europium3+ conjugate (DELFIA® detection, PerkinElmer). Time-resolved fluorescence was measured at 620 nm on an EnVision plate reader (PerkinElmer). Fluorescence data was converted to % specific binding (100% was determined from control wells containing biotinylated human IL-6 but no competitor, 0% was from wells containing biotinylated human IL-6 and a 100-fold excess of unbiotinylated human IL-6). Resultant data were analysed using Prism curve fitting software (Graphpad) to determine IC50 values according to Equation 3.

[4] = biological target: T3, Rat IL-6 (rat, UniProt P20607 25-211); assay: as above
T3 sequence (looked up): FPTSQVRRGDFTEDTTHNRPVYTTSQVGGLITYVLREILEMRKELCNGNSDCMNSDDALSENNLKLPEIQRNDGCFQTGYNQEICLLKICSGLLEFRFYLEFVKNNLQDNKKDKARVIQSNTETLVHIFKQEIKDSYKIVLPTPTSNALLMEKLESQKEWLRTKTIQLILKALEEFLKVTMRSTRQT
Procedure: as §1, §2

[5] = biological target: T4, Human IL-11 (human, UniProt P20809 22-199, limits assumed); assay: as above
T4 sequence (looked up): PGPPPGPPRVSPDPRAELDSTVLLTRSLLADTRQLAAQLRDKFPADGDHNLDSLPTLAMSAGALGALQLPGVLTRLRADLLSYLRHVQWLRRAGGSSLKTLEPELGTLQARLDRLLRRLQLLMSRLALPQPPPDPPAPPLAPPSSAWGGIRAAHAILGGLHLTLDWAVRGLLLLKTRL
Procedure: as §1, §2

[6] = biological target: T5, Human CNTF (human, UniProt P26441 2-200); assay: as above
T5 construct: also called ciliary neurotrophic factor
T5 sequence (looked up): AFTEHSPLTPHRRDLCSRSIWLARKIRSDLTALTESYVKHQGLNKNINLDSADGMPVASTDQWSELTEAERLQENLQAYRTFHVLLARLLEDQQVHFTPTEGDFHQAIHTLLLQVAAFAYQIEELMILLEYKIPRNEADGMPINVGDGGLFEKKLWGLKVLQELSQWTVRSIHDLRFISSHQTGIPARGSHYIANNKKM
Procedure: as §1, §2

[7] = biological target: Human LIF (human, UniProt P15018 23-202); assay: as above
Sequence of Human LIF (P15018 23-202 limits assumed): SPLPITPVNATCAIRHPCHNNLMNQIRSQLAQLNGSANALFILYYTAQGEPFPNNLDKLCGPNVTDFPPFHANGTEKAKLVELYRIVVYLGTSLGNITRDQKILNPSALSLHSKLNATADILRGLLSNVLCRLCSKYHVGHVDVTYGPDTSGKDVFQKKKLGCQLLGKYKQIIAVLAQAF
Procedure: as §1, §2

[8] = biological target: T6, Human Oncostatin M (human, UniProt P13725 26-221); assay: as above
T6 construct: also called OsM
T6 sequence (looked up): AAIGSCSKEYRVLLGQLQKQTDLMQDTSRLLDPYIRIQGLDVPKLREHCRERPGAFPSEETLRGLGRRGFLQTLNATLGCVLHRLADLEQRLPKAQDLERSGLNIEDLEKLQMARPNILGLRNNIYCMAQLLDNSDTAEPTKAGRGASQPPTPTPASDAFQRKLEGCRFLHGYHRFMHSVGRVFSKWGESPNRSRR
Procedure: as §1, §2

B1: CAN022D10 IgG (antibody, V domains shown)
VH: EVQLVQSGGGLIQPGGSLRLSCAASGFTISSNYMIWVRQAPGKGLEWVSDLYYYAGDTYYADSVKGRFTMSRDISKNTVYLQMNSLRAEDTGVYYCARWADDHYYYIDVWGRGTLVTVSS
VL: DIVMTQSPSTLSASVGDRVTITCRASQGISSWLAWYQQKPGRAPKVLIYKASTLESGVPSRFSGSGSGTDFTLTISSLQPEDFATYYCQQSYSTPWTFGQGTKLEIKR
notes: Biotinylated in the HTRF antibody-ligand assay; also called CAN22D10; parent IgG
B1 was tested. Which “IC50, IL-6 induced TF-1 cell proliferation” value [1] did it give?
The value was 93 nM.

What about the “IC50, endogenous IL-6 induced VEGF release from human synovial fibroblasts” value [1] of the same binder?
Its value is 45 nM.

What about the IC50 [2] of the same binder?
Its IC50 is 0.31 nM.

Does B1 bind [3]?
Result: no binding

Does B1 bind [4]?
Result: no binding

Does B1 bind [5]?
Result: no binding

Does B1 bind [6]?
Result: no binding

Does B1 bind [7]?
Result: no binding

Does B1 bind [8]?
Result: no binding
